Reference: the nanobody polyreactivity screen of Harvey et al. (2022)

Assay: yeast display, Sf9 membrane polyspecificity reagent, FACS + sequencing; frameworks hold sequencing errors
How it was run: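 Using colony PCR, genes from sorted yeast display clones were amplified, then sequenced on MiSeq at 2 × 250 and filtered by CDR length. The clones had been stained with 10% biotinylated, detergent-solubilized Sf9 membrane reagent for 1 hour at 4 °C and sorted by FACS into low and high (top ~1%) gates on anti-HA and streptavidin fluorescence. Polyreactivity labels come from the gate of origin.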

Row | Sequence | polyreactivity (PSR sort gate)
1 | QVQLVESGGGLVQAGGSLRLSCAASGSIFSTYAMGWYRQAPGKERELVAAINSGDSTSYADSVKGRFTISRDNAKNTVYLQMNSLKPEDTAVYYCAAKTGGYWYLRRTGRYESWGQGTQVTVSS | low polyreactivity
2 | QVQLVESVGGLVQAGGSLRLSCAASGRIFGYNDMGWYRQEPGKERELVAVISTSGTITYYADSVKGRFTISRDNAKNTVYLQMNSLKPEDTAVYNCAAGSYSRYLYSLYFDFDYWGQGTQVTVSS | low polyreactivity
3 | QVQLVESGGGLVQAGGSLRLSCAASGRIFVRYAMGWYRQAPGKERELVATITKNGGRTYYADSVKGRFTISRDNAKNTVYLQMNSLKPEDTAVYYCAARPTYVADHLRYGYWGQGTQVTVSS | high polyreactivity
4 | QVQLVESGGGVVQAGGSLRLSCAASGRTFGSNAMGWYRQAPGKERELVAGITTSGGSTNYADSVKGRFTISRDNAKNTVYLQMNSLKPEETAVYFCAVANYGIGYPHYIFDYWGQGTQVTVSS | low polyreactivity
5 | QVQLVESGGGLVQAGGSLRLSCAASGRIFYIYTMGWYILAPGKERELVAGITRAGSTNYADSVKGRFTISRDNAKNTVYLQMNSLKPEDTAVYYSNAYIWIYGFDYCGQGTQVTVSS | high polyreactivity
6 | QVQLVESGGGLVQAGGSLRLSCAASGSTFNFNAMGWYRQAPGKERELVAAISSSGGSTYYADSVKGRFTISRDNAKNTVYLQMNSLKPEDTAVYYCATVLRKSPLYYYWGQGTQVTVSS | high polyreactivity
7 | QVQLVESGGGLVQAGGSLRLSCAASGRIFYINTMGWYRQAPGKERELVAAISRRGGSTYYADSVKGRFTISRDNAKNTVYLQMNSLKPEDTAVYYCAARDQYGPGYRSESLDSWGQGTQVTVSS | low polyreactivity
8 | QVQLVESGGGLVQAGGSLRLSCAAYGFTFIYYAMGRYRQAPGKERELVAAISRRGGSTYYADSVKGRFTISRDNAKNTVYLQMNSLKPEDTAVYYCAAYTLNTRYDYWGQGTQVTVSS | high polyreactivity
9 | QVQLVESGGGLVQAGGSLRLSCAASGSIFSRNVMGWSRQAPGKERELVAGISWRGGRTYYADSVKGRFTISRDNAMITVYLQMTSLKPEDTAVYYCAKGGVSYGEGDYWGQGTQVTVSS | high polyreactivity
10 | QLQLEESGGGLVQAGGSLSLRCAASGRIFSRYPMGWYRQAPGKERELVAAISSRAGSTYYADSVKGRFTISRDNAKNTVYLQMNSLKPEDTAVYYCNNPSYSCSSPYDHWGQGTQVTVSS | high polyreactivity
11 | QVQLVESGGGLVQAGGSLRLSCAASGRTFDVYAMGWYRQAPGKERELVATIRSDGSTTYADSVKGRFTISRDNAKNTVYLQMTSLKPEDTAVYYCAADFRSGFSSSTTPVQSDWGQGTQVTVSS | low polyreactivity
12 | QVQLVESGGGLVQAGGSLRLSCAASGSTFTFNAMGWYRQATGKERELVAAITRSGTSTYYADSVKGRFTISRDNAKNTVYLQMNSLKPEDNAVYYCAAGRLWKTYEYYYWGQGTQVTVSS | high polyreactivity
13 | QVQLVESGGGLVQAGGSLRLSCAASGLTFNRNAMGWYRQAPGKERELVATISGSGASTYYADSVKGRFTISRDYAKNTVYLQMNSLKPEDTAVYDCAARWHYSWGSYGFDYWGQGTQVTVSS | high polyreactivity
14 | QVQHVESGGGLVQAGGILRLICDASGGIFAANAMGWYRPAPGQERELVAAITSVGSTYADSVKGRFTISRDNAKNTVYLQMNSLKPEDTAVYYCAADTESVIVWYEDDYWGQGTQVTVSS | low polyreactivity
15 | QVQLVESGGGLVQAGGSLRLSCAASGRIFTPYAMGWYRQAPGKERELVATISRGTSTSYADSVKGRFTISRDNAKNTVYLQMNSLKPEDTAVYYCAALGPRTTFRYTSYYYWGQGTQVTVSS | high polyreactivity
16 | QVQLVESGGGLVQAGGSLRLSCAASGITFFVYAMGWYRQAPGKERELVAAITSGDSTSYADSVKGRFTISRDNAKNTVYLQMNSLKPEDTAVYYCAAEQVTIEDGVYFDFNSWGQGTQVTVSS | low polyreactivity

Row | Sequence | polyreactivity (PSR sort gate)
17 | QVQLVESGGGLVQAGGSLRLSCAASGRIFYGYAMGWYSQAPGKEREVVATITGIGGSTYADSVKGRFTISRDHAKNTVYLQMNSLKPEDTAVYYCNAERGVYWGRYPYKYDYWGQGTQVTVSS | low polyreactivity
18 | QVQLVESGGGLVQAGGSLRLSCAASGRIYLKYTMGWYRQAPGKEREMVAAISRGGSTYYADSVKGRFTISRDNAKNTVYLQMNSLKPEDTAVYYCAATSYRRTGYNYWGQGTQVTVSS | high polyreactivity
19 | QVQLVESGGGLVQAGGSLRLICAASGSTFGVYAMGWYRQAPGKEREMVAAIRWSSGSTYYADSVKGRFTISRDNAKNTVYLQMNSLKPEDTAVYYCAKTRGIYNIRFGYWGQGTQVTVSS | high polyreactivity
20 | QVQLVESGGGLVQAGGSLRLSCAASGSTFPYVMGWYRQAPGKERELVAAISQSTGGITNYADSVKGRFTISRDNAKNTVYLQMNSLKPEDTAVYYCAATSWRYQQSTRYKGRRYYSWGQGSQVTVSS | high polyreactivity
21 | QVQLVESGGGLVQAGGSLRLSCASSGFIFHHYGMGRSRQAPGKERELVAGDTHYADSVKGRFTISRDNAKNTVYLQMNSLKPEDTAVYYCNAYWKDDFEDGPGRRGMDYWGQGTLVTVSS | low polyreactivity
22 | QVQLVESGGGLVQAGGSLRLSCAASGITLINYAMGWYRQAPGKERELVAAISTSGSSTYYADSVKGRFTISRDNAKNTVYLQMNSLKPEDTAVYYCAAELDVYSLFGYWGQGTQVTVSS | low polyreactivity
23 | QVQLVESGGGLVQAGGSLRLSCAASGNTFGTYVMGWYRPAPGKERELVAAISQSGGSTDYADSVKGRFTISRDNAKKTVYLQMNSLKPEDTAVYYCAKVTWGTVWYRSPSEYDYWGQGTQVTVSS | low polyreactivity
24 | QVQLVESGGGLVQAGGSLRLSCAASGNTFIYYAMGWYRQAPGKERELVAAISRSGGSTYYADSVKGRFTISRDNAKNTVYLQMNSLKPEDTAVYYCAAEATKWIGVVTMDYWGQGTQVTVSS | high polyreactivity
25 | QVQLVESGGGLVQAGGSLRLSCAASGLIFYWYAMGWYRQAPGKERELVAAITWSGGITYYADSVKGRFTISRDNAKNTVYLQMNSLKPEDTAVYYCAADDDYGDVTYDYWGQGTQVTVSS | low polyreactivity
26 | QVQLGESGGGLVQAGGSLRLSCAASGFSFWYYPMGWYRQAPGKERELVASIRYSGDSTSYADSVKGRFTISRDNAKNNVYFQMNSLKAEDTEVYYSAAVRYWYASYYTYEYWGQGTQVSVSS | high polyreactivity
27 | HVQLQESAGGLVQAGASLRLSCAPSGNISYSRNMGWYRQAPGKERELVAAIDRGAITYYADSVKGRFTISRDNEKNTVYLQIFSLKPEDTAVYYCAAVYHDRWDHRYWGQGTQVTVSS | high polyreactivity
28 | QVQLVESGGGLVQAGGRLRIICAASGYIFRFNAMGWYRQAPGKERELVAVITKSGGSTYYADSVKGRFTISRDNAKNTVYLQMNRLKPEDSAVYYCNADRFYIDYTNTYDSIRDYWGQGTQVTVSS | low polyreactivity
29 | QVQLVESGGGLVQAGGSLRLSCAASGRTFRYYTMGWYRQAPGKEREFVAAISSTGGTYYADSVKGRFTISRDNAKNTVYFQMNSLKPEDTAVYYCAAYRWGILSAYYYAWYGYWGQGTQVTVSS | low polyreactivity
30 | QVQLVESGGGLVQAGGSLRLSCAATGSTFIGYAMGWYRQAPGKETELVAAISEIGGSTYYADSVKGRFTISRDNAKNTVYLKMNSLKPEDTAVDYCAATEVYLYFWYGYEYWGQGTQVTVSS | low polyreactivity
31 | QVQLVESGGGLVQAGGSLRLTCAASGITFCIYVMGWYRQAPGKEREVVATISRSDDNTYYADSVKGRFTISRDNAKNTVYLQMYCLKPEDTAVYYCAADGVISAWYSSRDDYWGQGTQVTVSS | low polyreactivity
